Measured values published in patent publication US20100260668A1 (published 2010).

B1: DVD466 (bispecific antibody, IgG1)
VH: EVQLVESGGGLVQPGGSLRLSCAASGFTISDYWIHWVRQAPGKGLEWVAGITPAGGYTYYADSVKGRFTISADTSKNTAYLQMNSLRAEDTAVYYCARFVFFLPYAMDYWGQGTLVTVSSASTKGPEVQLVESGGGLVQPGGSLRLSCAASGFTFTDNWISWVRQAPGKGLEWVGYISPNSGFTYYADSVKGRFTISADTSKNTAYLQMNSLRAEDTAVYYCARDNFGGYFDYWGQGTLVTVSS
VL: DIQMTQSPSSLSASVGDRVTITCRASQDVSTAVAWYQQKPGKAPKLLIYSASFLYSGVPSRFSGSGSGTDFTLTISSLQPEDFATYYCQQSYTTPPTFGQGTKVEIKRTVAAPDIQMTQSPSSLSASVGDRVTITCRASQDVSTAVAWYQQKPGKAPKLLIYSASFLYSGVPSRFSGSGSGTDFTLTISSLQPEDFATTYYCQQSYTGTVTFGQGTKVEIKR
notes: HC linker short, LC linker short; also called DVD466H; DVD466L
B2: DVD474 (bispecific antibody, IgG1)
VH: EVQLVESGGGLVQPGGSLRLSCAASGFTINASWIHWVRQAPGKGLEWVGAIYPYSGYTNYADSVKGRFTISADTSKNTAYLQMNSLRAEDTAVYYCARWGHSTSPWAMDYWGQGTLVTVSSASTKGPSVFPLAPEVQLVESGGGLVQPGGSLRLSCAASGFTFTDNWISWVRQAPGKGLEWVGYISPNSGFTYYADSVKGRFTISADTSKNTAYLQMNSLRAEDTAVYYCARDNFGGYFDYWGQGTLVTVSS
VL: DIQMTQSPSSLSASVGDRVTITCRASQVIRRSLAWYQQKPGKAPKLLIYAASNLASGVPSRFSGSGSGTDFTLTISSLQPEDFATYYCQQSNTSPLTFGQGTKVEIKRTVAAPSVFIFPPDIQMTQSPSSLSASVGDRVTITCRASQDVSTAVAWYQQKPGKAPKLLIYSASFLYSGVPSRFSGSGSGTDFTLTISSLQPEDFATTYYCQQSYTGTVTFGQGTKVEIKR
notes: DVD-Ig, outer AB071 / inner AB015; HC linker long, LC linker long; also called DVD474H; DVD474L
B3: DVD468 (bispecific antibody, IgG1)
VH: EVQLVESGGGLVQPGGSLRLSCAASGFTINASWIHWVRQAPGKGLEWVGAIYPYSGYTNYADSVKGRFTISADTSKNTAYLQMNSLRAEDTAVYYCARWGHSTSPWAMDYWGQGTLVTVSSASTKGPEVQLVESGGGLVQPGGSLRLSCAASGFTFTDNWISWVRQAPGKGLEWVGYISPNSGFTYYADSVKGRFTISADTSKNTAYLQMNSLRAEDTAVYYCARDNFGGYFDYWGQGTLVTVSS
VL: DIQMTQSPSSLSASVGDRVTITCRASQVIRRSLAWYQQKPGKAPKLLIYAASNLASGVPSRFSGSGSGTDFTLTISSLQPEDFATYYCQQSNTSPLTFGQGTKVEIKRTVAAPDIQMTQSPSSLSASVGDRVTITCRASQDVSTAVAWYQQKPGKAPKLLIYSASFLYSGVPSRFSGSGSGTDFTLTISSLQPEDFATTYYCQQSYTGTVTFGQGTKVEIKR
notes: DVD-Ig, outer AB071 / inner AB015; HC linker short, LC linker short; also called DVD468H; DVD468L
B4: DVD486 (bispecific antibody, IgG1)
VH: B3 VH
VL: B2 VL
notes: DVD-Ig, outer AB071 / inner AB015; HC linker short, LC linker long; also called DVD486H; DVD486L
B5: DVD480 (bispecific antibody, IgG1)
VH: B2 VH
VL: B3 VL
notes: DVD-Ig, outer AB071 / inner AB015; HC linker long, LC linker short; also called DVD480H; DVD480L
B6: DVD471 (bispecific antibody, IgG1)
VH: EVQLVESGGGLVQPGGSLRLSCAASGFTFTDNWISWVRQAPGKGLEWVGYISPNSGFTYYADSVKGRFTISADTSKNTAYLQMNSLRAEDTAVYYCARDNFGGYFDYWGQGTLVTVSSASTKGPSVFPLAPEVQLVESGGGLVQPGGSLRLSCAASGFTISDYWIHWVRQAPGKGLEWVAGITPAGGYTYYADSVKGRFTISADTSKNTAYLQMNSLRAEDTAVYYCARFVFFLPYAMDYWGQGTLVTVSS
VL: DIQMTQSPSSLSASVGDRVTITCRASQDVSTAVAWYQQKPGKAPKLLIYSASFLYSGVPSRFSGSGSGTDFTLTISSLQPEDFATTYYCQQSYTGTVTFGQGTKVEIKRTVAAPSVFIFPPDIQMTQSPSSLSASVGDRVTITCRASQDVSTAVAWYQQKPGKAPKLLIYSASFLYSGVPSRFSGSGSGTDFTLTISSLQPEDFATYYCQQSYTTPPTFGQGTKVEIKR
notes: HC linker long, LC linker long; also called DVD471H; DVD471L
B7: DVD472 (bispecific antibody, IgG1)
VH: EVQLVESGGGLVQPGGSLRLSCAASGFTISDYWIHWVRQAPGKGLEWVAGITPAGGYTYYADSVKGRFTISADTSKNTAYLQMNSLRAEDTAVYYCARFVFFLPYAMDYWGQGTLVTVSSASTKGPSVFPLAPEVQLVESGGGLVQPGGSLRLSCAASGFTFTDNWISWVRQAPGKGLEWVGYISPNSGFTYYADSVKGRFTISADTSKNTAYLQMNSLRAEDTAVYYCARDNFGGYFDYWGQGTLVTVSS
VL: DIQMTQSPSSLSASVGDRVTITCRASQDVSTAVAWYQQKPGKAPKLLIYSASFLYSGVPSRFSGSGSGTDFTLTISSLQPEDFATYYCQQSYTTPPTFGQGTKVEIKRTVAAPSVFIFPPDIQMTQSPSSLSASVGDRVTITCRASQDVSTAVAWYQQKPGKAPKLLIYSASFLYSGVPSRFSGSGSGTDFTLTISSLQPEDFATTYYCQQSYTGTVTFGQGTKVEIKR
notes: HC linker long, LC linker long; also called DVD472H; DVD472L
B8: DVD465 (bispecific antibody, IgG1)
VH: EVQLVESGGGLVQPGGSLRLSCAASGFTFTDNWISWVRQAPGKGLEWVGYISPNSGFTYYADSVKGRFTISADTSKNTAYLQMNSLRAEDTAVYYCARDNFGGYFDYWGQGTLVTVSSASTKGPEVQLVESGGGLVQPGGSLRLSCAASGFTISDYWIHWVRQAPGKGLEWVAGITPAGGYTYYADSVKGRFTISADTSKNTAYLQMNSLRAEDTAVYYCARFVFFLPYAMDYWGQGTLVTVSS
VL: DIQMTQSPSSLSASVGDRVTITCRASQDVSTAVAWYQQKPGKAPKLLIYSASFLYSGVPSRFSGSGSGTDFTLTISSLQPEDFATTYYCQQSYTGTVTFGQGTKVEIKRTVAAPDIQMTQSPSSLSASVGDRVTITCRASQDVSTAVAWYQQKPGKAPKLLIYSASFLYSGVPSRFSGSGSGTDFTLTISSLQPEDFATYYCQQSYTTPPTFGQGTKVEIKR
notes: HC linker short, LC linker short; also called DVD465H; DVD465L
B9: DVD477 (bispecific antibody, IgG1)
VH: B6 VH
VL: B8 VL
notes: HC linker long, LC linker short; also called DVD477H; DVD477L
B10: DVD473 (bispecific antibody, IgG1)
VH: EVQLVESGGGLVQPGGSLRLSCAASGFTFTDNWISWVRQAPGKGLEWVGYISPNSGFTYYADSVKGRFTISADTSKNTAYLQMNSLRAEDTAVYYCARDNFGGYFDYWGQGTLVTVSSASTKGPSVFPLAPEVQLVESGGGLVQPGGSLRLSCAASGFTINASWIHWVRQAPGKGLEWVGAIYPYSGYTNYADSVKGRFTISADTSKNTAYLQMNSLRAEDTAVYYCARWGHSTSPWAMDYWGQGTLVTVSS
VL: DIQMTQSPSSLSASVGDRVTITCRASQDVSTAVAWYQQKPGKAPKLLIYSASFLYSGVPSRFSGSGSGTDFTLTISSLQPEDFATTYYCQQSYTGTVTFGQGTKVEIKRTVAAPSVFIFPPDIQMTQSPSSLSASVGDRVTITCRASQVIRRSLAWYQQKPGKAPKLLIYAASNLASGVPSRFSGSGSGTDFTLTISSLQPEDFATYYCQQSNTSPLTFGQGTKVEIKR
notes: DVD-Ig, outer AB015 / inner AB071; HC linker long, LC linker long; also called DVD473H; DVD473L
B11: DVD479 (bispecific antibody, IgG1)
VH: B10 VH
VL: DIQMTQSPSSLSASVGDRVTITCRASQDVSTAVAWYQQKPGKAPKLLIYSASFLYSGVPSRFSGSGSGTDFTLTISSLQPEDFATTYYCQQSYTGTVTFGQGTKVEIKRTVAAPDIQMTQSPSSLSASVGDRVTITCRASQVIRRSLAWYQQKPGKAPKLLIYAASNLASGVPSRFSGSGSGTDFTLTISSLQPEDFATYYCQQSNTSPLTFGQGTKVEIKR
notes: DVD-Ig, outer AB015 / inner AB071; HC linker long, LC linker short; also called DVD479H; DVD479L
B12: DVD485 (bispecific antibody, IgG1)
VH: EVQLVESGGGLVQPGGSLRLSCAASGFTFTDNWISWVRQAPGKGLEWVGYISPNSGFTYYADSVKGRFTISADTSKNTAYLQMNSLRAEDTAVYYCARDNFGGYFDYWGQGTLVTVSSASTKGPEVQLVESGGGLVQPGGSLRLSCAASGFTINASWIHWVRQAPGKGLEWVGAIYPYSGYTNYADSVKGRFTISADTSKNTAYLQMNSLRAEDTAVYYCARWGHSTSPWAMDYWGQGTLVTVSS
VL: B10 VL
notes: DVD-Ig, outer AB015 / inner AB071; HC linker short, LC linker long; also called DVD485H; DVD485L

What follows are binders tested against VEGF (VEGF 1-165 aa, R&D Systems 293-VE-010) (UniProt P15692 27-191) (assay: Direct bind ELISA, VEGF coated on plate;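 note: ELISA screening of antibodies for binding to the plate-coated target antigen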).
VEGF (VEGF 1-165 aa, R&D Systems 293-VE-010), sequence (P15692 other isoform, or with tags, fused parts or gaps limits assumed): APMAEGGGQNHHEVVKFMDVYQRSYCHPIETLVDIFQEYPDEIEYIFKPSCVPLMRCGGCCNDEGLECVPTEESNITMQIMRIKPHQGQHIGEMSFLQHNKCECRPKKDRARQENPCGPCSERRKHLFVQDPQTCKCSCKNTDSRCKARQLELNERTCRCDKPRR

| EC50 [nM] | Binder |
| --- | --- |
| 2.61 | B1 |
| 17.9 | B2 |
| 25.6 | B3 |
| 28 | B4 |
| 23 | B5 |
| 30.1 | B6 |
| 9.22 | B7 |
| 396 | B8 |
| 41.7 | B9 |
| 388 | B10 |
| 456 | B11 |
| 121 | B12 |
